Measured values from publication PMC13067816, “Alphaviral Capsid Proteins Inhibit Stress Granule Assembly via Competitive RNA Binding With G3BP1”.

Target: SFV capsid (nucleocapsid N) (Semliki Forest virus (SFV4, …, UniProt P03315 1-267))
Experiment: fluorescence polarization; 20 nM probe, 0-8000 nM protein; FP: 50 mM Tris-HCl pH 7.4, 150 mM NaCl, 20 nM FAM-RNA, 15 min, room temperature

GCGUCGUGUGAGCCCCCGAAAGACCACAUA (ssRNA) [FAM-SFV gRNA probe2]: binds.

AUGCAAAGGGCUUGGACUUGGGUGGCAGAG (ssRNA) [FAM-AHNAK probe]: binds.

GGUUGACGGGUCGGAUAGUUGCUU (ssRNA) [FAM-SFV gRNA probe1]: binds.

UUUGUCAAGCUCAUUUCCUGGUAUGACAAC (ssRNA) [FAM-GAPDH probe]: binds.
